The supplement of paper PMC12042874
± gives the uncertainty stated by the source.

Assay: amyloid nucleation score (Sup35N fusion, yeast selection) (log enrichment); library NNK1; higher = more nucleation; inactive = no reads after selection
Method in brief: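 Sup35N fusions to peptides of 20 random codons were expressed in psi-negative yeast, induced 24 hours with 100 μM copper sulfate, and grown 7 days at 30°C on medium lacking adenine and uracil. Input and output plasmid inserts were sequenced by Illumina. The nucleation score is the DiMSum log enrichment of output over input reads, centred on the mode score of non-aggregating sequences. Sequences with under 100 input reads were excluded.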

Substance | amyloid nucleation score
WRLMRECTFSVS | 0.137 ± 0.29
GFNKR | -0.991 ± 2.4
EMYCVYSFRSYFVYGLSLGS | -0.269 ± 0.36
NMSLSWRTNRYAWPMVCLIR | 0.182 ± 0.23
HNQDSCIFGQYSDNEVNASV | -1.47 ± 1.6
WRESSGTNLSAFVPKDM | -0.675 ± 0.81
TDEGLVCHK | 0.522 ± 0.75
TMFHLWNFGCVALVR | -0.104 ± 0.34
DVFIGMMLRACNVLHSGWFS | 0.18 ± 0.23
WSLQKRG | inactive
YFFGLILY | -0.332 ± 0.56
AVCQRNLFGIVRICRSKTR | 4.64 ± 0.055
GTLDDTGVTDDNFI | 1.19 ± 0.4
HTEYRKYRVCTFLK | 0.826 ± 0.4
LSHVKTTRLMPLET | -1.11 ± 1.7
EGNMNEWTCLSCRSRAEEAR | -0.255 ± 0.9
MSGCLDDNANC | -0.382 ± 0.35
SYIGDCEIFIKEPVGANNLE | -0.909 ± 2.7
LLNAFWSFAY | 1.6 ± 0.32
VRLFMYMCIWMFMSDSSIWG | -0.348 ± 0.64
ILQIYLMWQVW | 4.85 ± 0.05
GSSTVNL | -0.345 ± 1.7
SAVQGCNGRCCYFGRGWWSG | 3.4 ± 0.083
SDNTMSPKLCLMASWVRIST | 0.418 ± 0.23
KELCGLRGYTFYEQF | 0.588 ± 0.74

Substance | amyloid nucleation score
CGWRQKLVMVETVTGFSLWG | 1.41 ± 0.88
VSCMRDIIRLCYQQTPICKF | -0.272 ± 0.84
HWLGYVVLDLFDWPYCMIDL | 1.38 ± 0.5
CSLLSAPPVDSLWGTESRLI | -0.804 ± 0.73
CRLFYSWNVNMYRNMLLRWI | -0.767 ± 0.33
YLIVVLCRRCLMGSGYNRIG | -0.368 ± 0.97
SIDFV | 0.989 ± 0.88
FATIVFVVKNENFMNADTLR | 5.68 ± 0.08
FFSPSNKNYKR | -0.215 ± 0.35
MALLRLDIITFRNESCSEPN | -0.046 ± 0.26
CMLVYCEVASVGVSFKLWWR | 1.73 ± 0.39
VWCVVVCMSRQGKYTLCRWR | 0.444 ± 0.97
KLYNGLQHVQAGTLVMQ | 0.46 ± 1.2
LGQGRLYILYFMSMYLDMMG | 0.748 ± 0.47
GDLSLRLLG | 0.419 ± 0.66
FTFFRRW | inactive
VNNFIDCSSFCVYYLFKPGR | 7.671 ± 0.051
CRLIVISTTYIIKAQKCLIG | -0.512 ± 0.33
PIHGISFFDAYNL | -0.128 ± 1.4
SCPVPKLLAIGLSHVRSFGF | -0.47 ± 0.42
MILHLDVSISIVLD | 1.58 ± 0.15
IKCPRLK | -0.466 ± 0.66
RGNDLFTQVASMKSV | -0.207 ± 0.55
SLRKKVSSVCSC | 0.838 ± 0.54
GRGVLSSPSALGRFSLTEGM | -0.444 ± 0.44

Substance | amyloid nucleation score
SRFKTDYTG | -0.492 ± 0.68
MMLRLRT | inactive
LMTNKKNVMMRRIHTGVASN | 0.368 ± 0.97
SPKSPPL | -0.053 ± 0.62
IRMVL | 0.697 ± 0.44
IKYVQIGRRRLKWGGERRPL | 0.311 ± 0.37
IAAVQ | 0.162 ± 0.89
IYYTSWYINAYLCGHMPVRG | 2.52 ± 0.23
CVWNYCAWFTVARNTTLFNN | -0.508 ± 0.89
CYVSS | -0.548 ± 0.53
RPKHTGTINYKHVHTNYVEG | 1.36 ± 0.47
NLVAT | 1.09 ± 0.67
CLVVTETANI | -0.578 ± 0.69
TIVRGSNYRPPVWPSDY | -0.535 ± 1.1
CLSCSNICFFIHSVNWDVFS | 5.27 ± 0.11
AGKHLGNNIRYILVYGESFR | -1.09 ± 0.85
CYAGFCNQRLPHYLLKLQVL | -0.42 ± 1.7
FSGVMLVEWLTSPRHLRRAL | 0.678 ± 1.1
YRKFENGVSVIRFEVQCTLV | 4.88 ± 0.072
QVLQNCRGTFDDRILLFNGI | -0.288 ± 0.8
PLYKAVLTDK | inactive
WYPYTVSIPLIYVVSCIDEY | 5.91 ± 0.07
QELWHMYSIYYVFRTGDHIY | -0.163 ± 0.27
